# Test results published in patent US20250084155A1 (University of Texas, published 2025).
# B1: 77A antibody (clone 77A, murine anti-HSP70 monoclonal antibody) (antibody, V domains shown)
# VH: QIQLVQSGPELKKPGETVKISCKASGYTFTNYGMNWVKQAPGKGLKWMGWINTYTGEPTYADDFKGRFAFSLETSATTAYLQINNLKNEDTATYFCARYDHAMDYWGQGTSVTVSS
# VL: DIVMSQSPSSLAVSAGEKVTMSCKSSQSLLNSGTRKNYLAWYQQKPGQSPKLLIYWTSTRESGVPDRFTGSGSGTDFTLTINSVQAEDLAVYYCKQSYTLYTFGGGTKLEIK
# notes: murine hybridoma antibody; its isotype control is IgG2B; also called mAb 77A
# B2: h77A-1-G1m3-GAALIE (antibody, human IgG1, kappa)
# heavy: QIQLVQSGAEVKKPGASVKVSCKASGYTFTNYGMNWVRQAPGQGLEWMGWINTYTGEPTYADDFKGRFTFTTDTSTSTAYMELRSLRSDDTAVYFCARYDHAMDYWGQGTLVTVSSASTKGPSVFPLAPSSKSTSGGTAALGCLVKDYFPEPVTVSWNSGALTSGVHTFPAVLQSSGLYSLSSVVTVPSSSLGTQTYICNVNHKPSNTKVDKRVEPKSCDKTHTCPPCPAPELLAGPSVFLFPPKPKDTLMISRTPEVTCVVVDVSHEDPEVKFNWYVDGVEVHNAKTKPREEQYNSTYRVVSVLTVLHQDWLNGKEYKCKVSNKALPLPEEKTISKAKGQPREPQVYTLPPSREEMTKNQVSLTCLVKGFYPSDIAVEWESNGQPENNYKTTPPVLDSDGSFFLYSKLTVDKSRWQQGNVFSCSVMHEALHNHYTQKSLSLSPGK
# light: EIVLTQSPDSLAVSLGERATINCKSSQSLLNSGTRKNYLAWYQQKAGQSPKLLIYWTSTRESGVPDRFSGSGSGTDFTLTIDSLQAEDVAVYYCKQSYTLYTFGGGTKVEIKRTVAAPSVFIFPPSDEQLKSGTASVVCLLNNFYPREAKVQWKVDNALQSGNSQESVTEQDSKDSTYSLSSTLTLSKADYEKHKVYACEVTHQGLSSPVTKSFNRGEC
# notes: IgG1 G236A/A330L/I332E (EU) Fc variant; also called 77A^GAALIE; copies: 2 + 2
# What was measured:
# [1] = molecular target: T1, 504 (N-terminal GFP fusion; GFP is not in the letters); assay: immunoprecipitation with 77A from extracts of HSP70 KO 293T cells, Western blot with anti-GFP [panel B]
# T1 construct: not shown: N-terminal GFP fusion partner and any linker
# [2] = molecular target: T2, ADP-HSP70 (ADP-enriched HSP70, expressed in SF9 cells) (human, UniProt P0DMV8 1-641, limits assumed); assay: BLI, 77A on sensor, ADP-HSP70 at 75 (µM)
# T2 sequence (P0DMV8 whole entry): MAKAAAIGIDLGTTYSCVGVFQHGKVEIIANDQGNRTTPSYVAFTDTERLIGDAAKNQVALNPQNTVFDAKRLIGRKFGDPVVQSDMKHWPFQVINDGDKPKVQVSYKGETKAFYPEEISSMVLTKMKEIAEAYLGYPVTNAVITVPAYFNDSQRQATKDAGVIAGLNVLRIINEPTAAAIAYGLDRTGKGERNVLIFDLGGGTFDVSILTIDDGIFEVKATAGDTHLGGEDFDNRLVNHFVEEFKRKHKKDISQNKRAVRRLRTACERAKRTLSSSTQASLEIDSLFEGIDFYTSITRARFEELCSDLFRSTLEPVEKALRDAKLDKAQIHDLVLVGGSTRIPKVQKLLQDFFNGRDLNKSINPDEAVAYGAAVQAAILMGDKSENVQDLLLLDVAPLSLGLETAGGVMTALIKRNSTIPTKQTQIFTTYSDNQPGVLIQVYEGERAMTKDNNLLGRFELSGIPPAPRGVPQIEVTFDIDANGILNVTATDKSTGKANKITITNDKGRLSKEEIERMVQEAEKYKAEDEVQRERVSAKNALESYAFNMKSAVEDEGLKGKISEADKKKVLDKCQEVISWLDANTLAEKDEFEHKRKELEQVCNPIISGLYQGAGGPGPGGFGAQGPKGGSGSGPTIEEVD
# Experimental: (§1) HSP70 was expressed in SF9 cells. Affinity chromatography using resins selective for ADP or ATP-binding proteins were used to enrich bulk preparations of the correspondingly bound HSP70 recombinant protein. Protein concentrations, determined after elution, were measured so that equal concentrations could be used in subsequent assays. For BLI-based assays, antibodies and reagents were diluted out onto microwell plates and loaded into the instrument. Antibodies being tested were immobilized onto dip-and-read sensors and then observed for kinetics during binding to ATP or ADP-enriched HSP70. For ELISA, the relevant enriched HSP70 proteins were directly coated onto ELISA plate wells overnight. Test antibodies were then serially diluted across the plate wells, and detected using an appropriate secondary antibody-HRP conjugate. The plates were developed using a TMB substrate, and the O.D. stabilized using an acid stop solution.
# [3] = molecular target: T3, HSP70 (human HSP70; the antigen of the binning, humanization and variant binding assays) (human, UniProt P0DMV8 1-641, limits assumed); assay: BLI, antibody on sensor
# T3 construct: also called hu HSP70
# T3 sequence (P0DMV8 whole entry, change not shown): as the sequence (P0DMV8 whole entry) above
# Method in brief: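 Antibodies immobilized on biolayer interferometry sensors, baseline taken, then dipped into HSP70 antigen solution or buffer. Binding followed as interference-pattern shift; kinetic constants derived by modeling from the signals and reagent concentrations.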
# [4] = molecular target: T2, ADP-HSP70 (ADP-enriched HSP70, …); assay: ELISA, HSP70 coated
# Experimental: as §1
# (§2) ELISA data, shown in FIG. 18, depicted the same trend, in which 77A had higher maximal absorbance with the ADP-enriched HSP70 than the ATP-enriched HSP70.
# [5] = molecular target: T4, ATP-HSP70 (ATP-enriched HSP70, expressed in SF9 cells) (human, UniProt P0DMV8 1-641, limits assumed); assay: ELISA, HSP70 coated
# T4 sequence (P0DMV8 whole entry): as above
# Experimental: as §1, §2
# [6] = molecular target: T2, ADP-HSP70 (ADP-enriched HSP70, …); assay: BLI, 77A on sensor, ADP-HSP70 at 300 (µM)
# Experimental: as §1
# [7] = molecular target: T2, ADP-HSP70 (ADP-enriched HSP70, …); assay: BLI, 77A on sensor
# Experimental: as §1
# [8] = molecular target: T4, ATP-HSP70 (ATP-enriched HSP70, …); assay: BLI, 77A on sensor, ATP-HSP70 at 150 (µM)
# Experimental: as §1
# [9] = molecular target: T4, ATP-HSP70 (ATP-enriched HSP70, …); assay: BLI, 77A on sensor, ATP-HSP70 at 75 (µM)
# Experimental: as §1
# [10] = molecular target: human HSP70 made in E. coli (human, UniProt P0DMV8 1-641, limits assumed); assay: Octet (BLI)
# Sequence of human HSP70 made in E. coli (P0DMV8 whole entry): as above
# [11] = molecular target: T5, human HSP70 made in Sf9 insect cells (human, UniProt P0DMV8 1-641, limits assumed); assay: Octet (BLI)
# T5 construct: also called HSP70 made in eukaryotic insect Sf9 cells
# T5 sequence (P0DMV8 whole entry): as above
# [12] = molecular target: murine HSP70 (murine, UniProt P17879 1-642); assay: Octet (BLI)
# Sequence of murine HSP70 (P17879 other isoform, or with tags, fused parts or gaps): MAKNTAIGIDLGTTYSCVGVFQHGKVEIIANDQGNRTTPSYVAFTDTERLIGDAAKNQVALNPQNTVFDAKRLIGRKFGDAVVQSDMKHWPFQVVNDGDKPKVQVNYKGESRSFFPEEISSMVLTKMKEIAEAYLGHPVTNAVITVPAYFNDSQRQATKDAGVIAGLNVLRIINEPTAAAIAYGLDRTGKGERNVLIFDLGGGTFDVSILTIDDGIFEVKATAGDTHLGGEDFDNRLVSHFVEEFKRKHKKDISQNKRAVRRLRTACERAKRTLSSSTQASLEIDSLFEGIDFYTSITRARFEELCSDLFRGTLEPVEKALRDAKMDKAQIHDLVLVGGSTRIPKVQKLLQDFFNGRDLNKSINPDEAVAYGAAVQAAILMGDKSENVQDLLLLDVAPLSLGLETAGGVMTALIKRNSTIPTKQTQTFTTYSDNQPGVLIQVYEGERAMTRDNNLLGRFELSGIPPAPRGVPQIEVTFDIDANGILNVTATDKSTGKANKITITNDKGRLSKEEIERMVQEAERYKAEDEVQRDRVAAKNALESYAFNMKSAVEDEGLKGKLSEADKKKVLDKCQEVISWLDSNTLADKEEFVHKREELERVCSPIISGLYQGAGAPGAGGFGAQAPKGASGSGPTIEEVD
# [13] = molecular target: T2, ADP-HSP70 (ADP-enriched HSP70, …); assay: BLI, 77A on sensor, ADP-HSP70 at 37.5 (µM)
# Experimental: as §1
# [14] = molecular target: T4, ATP-HSP70 (ATP-enriched HSP70, …); assay: BLI, 77A on sensor, ATP-HSP70 at 300 (µM)
# Experimental: as §1
# [15] = molecular target: T2, ADP-HSP70 (ADP-enriched HSP70, …); assay: BLI, 77A on sensor, ADP-HSP70 at 150 (µM)
# Experimental: as §1
# [16] = molecular target: T6, recombinant human FcγR2A (human, UniProt P12318 36-218); assay: ELISA on coated recombinant human FcγR2A; monomeric antibody; OD 450 nm
# T6 sequence (looked up): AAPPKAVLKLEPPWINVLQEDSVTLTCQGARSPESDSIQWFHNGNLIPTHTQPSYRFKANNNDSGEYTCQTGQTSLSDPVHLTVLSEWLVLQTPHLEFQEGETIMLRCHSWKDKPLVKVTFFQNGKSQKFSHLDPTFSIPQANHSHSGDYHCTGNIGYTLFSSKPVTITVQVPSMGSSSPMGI
# Experimental: ELISA assays were performed to assess binding to coated FcγR2A by either the monomeric antibody or the antibody in complex with HSP70. Briefly, the assay was performed by coating plates with recombinant human FcγR2A overnight at 0.3 μg/mL. Plates were then washed three times with 300 μL of 1×PBST, and then blocked using 150 µL of SuperBlock per well for 1 hr. Washing was repeated as before, then the dilution series of any of the antibody variants (referred to as “monomeric antibody”) or any of the or antibody immuno-complexes (hereafter referred to as “77A ICX”) were added. To make each dilution series, the following was performed: HSP70 was held constant, and first prepared at a 2× concentration of 200 nM. Antibody was first prepared at 600 nM (2× starting concentration) for the first well, and then serially diluted in three-fold increments using 1× PBST. For use in the assay as monomeric antibody, 80 μL of each 2× antibody dilution was added to 80 μL of 1×PBST and mixed well by pipette to make a 1× dilution series, with the highest concentration being 300 nM. To form the 77A ICX, 80 μL of each 2× antibody dilution was added to 80 μL of 2× HSP70 and mixed well by pipette. […] Plates were then read on a plate reader at 450 and 540 nm wavelengths.
binder,measurement,setting,value
B1,binding result,[1],no binding
same,Kd,[2],5.42 nM
same,koff,[2],0.000292 s⁻¹
same,kon,[2],53800 M⁻¹ s⁻¹
same,Kd,[3],1.2 nM
same,koff,[3],8.08e-05 s⁻¹
same,kon,[3],67400 M⁻¹ s⁻¹
same,EC50,[4],0.737 nM
same,EC50,[5],1.77 nM
same,Kd,[6],5.42 nM
same,koff,[6],0.000292 s⁻¹
same,kon,[6],53800 M⁻¹ s⁻¹
same,fold greater affinity (KD) than ATP-enriched HSP70,[7],≥ 4 fold
same,Kd,[8],20.2 nM
same,koff,[8],0.00038 s⁻¹
same,kon,[8],18800 M⁻¹ s⁻¹
same,Kd,[9],20.2 nM
same,koff,[9],0.00038 s⁻¹
same,kon,[9],18800 M⁻¹ s⁻¹
same,Kd,[10],0.85 nM
same,Kd,[11],< 0.001 nM
same,Kd,[12],988 nM
same,Kd,[13],5.42 nM
same,koff,[13],0.000292 s⁻¹
same,kon,[13],53800 M⁻¹ s⁻¹
same,Kd,[14],20.2 nM
same,koff,[14],0.00038 s⁻¹
same,kon,[14],18800 M⁻¹ s⁻¹
same,Kd,[15],5.42 nM
same,koff,[15],0.000292 s⁻¹
same,kon,[15],53800 M⁻¹ s⁻¹
B2,binding result,[16],binds
